# From patent publication US20140286957A1 (Teva, published 2014)
# Where a chain is given by its changes, count along the chain named. Values joined by “and” are separate entries in the source; they are usually repeats but may differ in a detail not shown here. Equal entries are not always repeated. Where two headings read alike, the source gives them in different places.
# T1: Human CD1d on cells (human, UniProt P15813 20-335)
# T1 sequence (looked up): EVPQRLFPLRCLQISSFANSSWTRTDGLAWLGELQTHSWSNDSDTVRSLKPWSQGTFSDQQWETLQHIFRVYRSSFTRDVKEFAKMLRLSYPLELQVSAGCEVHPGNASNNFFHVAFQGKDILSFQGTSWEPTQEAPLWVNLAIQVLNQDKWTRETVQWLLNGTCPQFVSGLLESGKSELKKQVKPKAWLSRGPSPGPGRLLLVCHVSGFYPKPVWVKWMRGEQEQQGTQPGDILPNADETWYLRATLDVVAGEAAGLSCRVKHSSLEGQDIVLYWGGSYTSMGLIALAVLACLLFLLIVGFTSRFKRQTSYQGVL
# T2: CD1d tetramer loaded with α-GalCer (ProImmune) (UniProt P15813 20-301, limits assumed)
# T2 construct: Bought reagent; also called fluorochrome-conjugated CD1d tetramer
# T2 sequence (looked up): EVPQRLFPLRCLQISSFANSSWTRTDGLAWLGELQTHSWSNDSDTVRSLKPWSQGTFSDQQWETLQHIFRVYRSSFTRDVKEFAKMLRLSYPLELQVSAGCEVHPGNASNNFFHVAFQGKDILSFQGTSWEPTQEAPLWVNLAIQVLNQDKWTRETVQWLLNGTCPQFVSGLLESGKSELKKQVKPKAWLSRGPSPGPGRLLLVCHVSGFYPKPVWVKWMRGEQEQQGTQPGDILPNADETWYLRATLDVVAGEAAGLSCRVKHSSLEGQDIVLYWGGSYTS
# B1: 401.11 (antibody, V domains shown)
# VH: QVQLVGSGGGLVKPGRSLRLSCAASGFTFDDYAMHWVRQAPGKGLEWVATIIWNSAIIGYADSVKGRFIVSRDNAKNSLYLQMNSLRAEDMALYYCAKDMCSSSGCPDGYFDSWGQGTLVTVSS
# VL: DIQMTQSPSSVSASVGDRVTITCRASQHISSWLAWYQQKPGKAPNLLIYAASSLQSGVSSRFSGSGSGTDFTLTISSLQPEDFATYYCQQANRFPLTFGGGTKLEIKR
# B2: FAb 401.11.165 (Fab, V domains shown)
# VH: B1 VH with Q1E, G6E, K13Q, M91T, S104G
# VL: B1 VL with N45K, S59P
# notes: Made by papain digest of the IgG4
# Experiments:
# [1] = molecular target: T1, Human CD1d on cells; assay: cell-based or functional assay
# [2] = molecular target: T1, Human CD1d on cells; assay: cell-based or functional assay; remark: listed apart in the source
# [3] = molecular target: T1, Human CD1d on cells; assay: cell-based or functional assay; remark: listed apart in the source
# [4] = molecular target: T1, Human CD1d on cells; assay: cell-based or functional assay; remark: listed apart in the source
# [5] = molecular target: T1, Human CD1d on cells; assay: cell-based or functional assay; remark: listed apart in the source
# [6] = molecular target: T1, Human CD1d on cells; assay: cell-based or functional assay; remark: listed apart in the source
# [7] = molecular target: T1, Human CD1d on cells; assay: cell-based or functional assay; remark: listed apart in the source
# [8] = molecular target: T1, Human CD1d on cells; assay: cell-based or functional assay; remark: listed apart in the source
# [9] = molecular target: T1, Human CD1d on cells; assay: cell-based or functional assay; remark: listed apart in the source
# [10] = molecular target: T2, CD1d tetramer loaded with α-GalCer …; assay: flow cytometry, inhibition of CD1d tetramer (10 nM) binding to NKTCR on J.RT3-T3.5 cells
# Procedure: To perform the assay, antibodies were prepared at decreasing concentrations from 10 μg/mL in 0.1% bovine serum albumin (BSA) in cold 1×PBS at pH 7.4. […] Wash steps were done in 0.1% BSA in 1×PBS. Data were acquired by flow cytometry and analyzed using flow cytometry analysis software (FlowJo® Treestar, Inc.).
# [11] = molecular target: T1, Human CD1d on cells; assay: cell-based or functional assay; remark: listed apart in the source
# [12] = molecular target: T1, Human CD1d on cells; assay: cell-based or functional assay; remark: listed apart in the source
# [13] = molecular target: T1, Human CD1d on cells; assay: cell-based or functional assay; remark: listed apart in the source
# [14] = molecular target: T3, Human CD1d/β2M (human, UniProt P15813 20-301; P61769 21-119); assay: direct ELISA, plate coated with 1 µg/mL human CD1d, HRP anti-human kappa detection
# T3 construct: also called hCD1d; recombinant human CD1d
binder,measurement,setting,value
B1,IFN-γ EC50 (THP-1),[1],3.8 ng/mL
same,IL-4 EC50 (THP-1),[1],1.9 ng/mL
same,IL-5 EC50 (THP-1),[1],1.7 ng/mL
same,IL-13 EC50 (THP-1),[1],2.5 ng/mL
same,NKT IFN-γ EC50 (moDC),[2],39.4 ng/mL
same,NKT IL-4 EC50 (moDC),[2],17.3 ng/mL
same,NKT IL-5 EC50 (moDC),[2],47.5 ng/mL
same,NKT IL-13 EC50 (moDC),[2],83.1 ng/mL
same,NKT TNF EC50 (moDC),[2],16.9 ng/mL
same,NKT IFN-γ EC50 (THP-1),[3],3.75 ng/mL
same,NKT IFN-γ EC50 (moDC),[3],0.857 ng/mL
same,NKT IL-4 EC50 (THP-1),[3],2.88 ng/mL
same,NKT IL-4 EC50 (moDC),[3],6.86 ng/mL
same,IFN-γ EC50 (primary CD14+ cells),[4],6.8 ng/mL
same,IL-4 EC50 (primary CD14+ cells),[4],5.9 ng/mL
same,IL-5 EC50 (primary CD14+ cells),[4],6.2 ng/mL
same,IL-13 EC50 (primary CD14+ cells),[4],12.1 ng/mL
same,NKT IFN-γ EC50 (THP-1),[5],3.75 ng/mL
same,NKT IFN-γ EC50 (moDC),[5],0.857 ng/mL
same,"IFN-γ EC50 (C24:1 βGluCer, moDC)",[6],2.38 ng/mL
same,"IL-4 EC50 (C24:1 βGluCer, moDC)",[6],1.45 ng/mL
same,"IL-5 EC50 (C24:1 βGluCer, moDC)",[6],1.23 ng/mL
same,"IL-13 EC50 (C24:1 βGluCer, moDC)",[6],5.55 ng/mL
same,"TNF-α EC50 (C24:1 βGluCer, moDC)",[6],1.79 ng/mL
same,NKT IL-4 EC50 (moDC),[7],7.63 ng/mL and 6.54 ng/mL
same,NKT IL-13 EC50 (moDC),[7],22.8 ng/mL and 19.6 ng/mL
same,IL-2 release EC50 (U-937 + NKTCR cell line),[8],5.3 ng/mL
same,NKT IFN-γ EC50 (THP-1),[9],55.2 ng/mL
same,NKT IL-4 EC50 (THP-1),[9],2.98 ng/mL
same,NKT IL-5 EC50 (THP-1),[9],6.96 ng/mL
same,NKT IL-13 EC50 (THP-1),[9],27.2 ng/mL
same,NKT TNF EC50 (THP-1),[9],9.18 ng/mL
same,EC50,[10],284 ng/mL
same,"fold potency against 51.1, IL-2 release",[11],~15 fold
same,fold potency against antibody 42 (C24:1 βGluCer),[11],≤ 58 fold
same,fold potency against antibody 42 (THP-1 assay),[11],≤ 114 fold
same,fold potency against antibody 42 (moDC assay),[11],≤ 200 fold
same,"fold potency against antibody 42, IL-2 release",[11],~20 fold
same,fold potency against antibody 51.1 (C24:1 βGluCer),[11],≤ 47 fold
same,NKT IFN-γ EC50 (moDC),[12],12.4 ng/mL
same,NKT IL-4 EC50 (moDC),[12],1.98 ng/mL
same,NKT IL-5 EC50 (moDC),[12],2.25 ng/mL
same,NKT IL-13 EC50 (moDC),[12],2.36 ng/mL
same,NKT IFN-γ EC50 (THP-1),[13],2.33 ng/mL
same,NKT IFN-γ EC50 (moDC),[13],23.5 ng/mL
same,NKT IL-4 EC50 (THP-1),[13],1.36 ng/mL
same,NKT IL-4 EC50 (moDC),[13],12.8 ng/mL
same,NKT IL-13 EC50 (THP-1),[13],3.29 ng/mL
B2,EC50 (read off the curve),[14],~60 ng/mL
